Assay results as given in article PMC7984235, “Structure‐based design of peptides that trigger Streptococcus pneumoniae cell death” (The Febs Journal, 2020).

B2: Streptococcus pneumoniae HigA antitoxin (natural protein)
chain: MKNNAIGSNWKDVRAELFSKEEILESDMRVAIMSELIEARNEKGISQKKLEEMSGVSQPVIARMETGKTSPQLDTVLKVLASLGKTLAVVPLEHEQV
notes: Cloned with Nde1/Xho1 into pET-21a(+); Forms a dimer within the HigB-(HigA)2-HigB heterotetramer; also called WT HigA; full-length HigA

Key:
[1] = target: B2; experiment: cell-based or functional assay
[2] = target: the molecule itself; experiment: crystal structure; HigBA complex, sitting-drop vapor diffusion at 293 K; protein 11 mg/mL in 50 mM MES pH 6.0, 500 mM NaCl; native data to 2.30 Å, SeMet SAD phasing at 2.80 Å
[3] = target: the molecule itself; experiment: SEC; oligomeric state from a molecular weight comparison with various reference proteins (Fig. S2)
HigB;HigA [4] = target: T1, HigB;HigA (Streptococcus pneumoniae …, UniProt A0A0H2UQ08;A0A0H2UQ20 1-121;1-97, |); experiment: ITC; n=0.53; ITC: 50 mM MES pH 6.0, 100 mM NaCl, 25 C; […]; conditions: protein: recombinant;recombinant; chain copies: 2;2; blunt
HigA [5] = target: T2, HigA (Streptococcus pneumoniae TIGR4, UniProt A0A0H2UQ20 1-97); experiment: as above; conditions: protein: recombinant; tags: pET-21a(+), stop codon in reverse primer; chain copies: 2; blunt
HigB;HigA [6] = target: T1, HigB;HigA; experiment: ITC; n=0.49; ITC: 50 mM MES pH 6.0, 100 mM NaCl, 25 C; […]; conditions: protein: recombinant;recombinant; chain copies: 2;2; blunt
HigA [7] = target: T2, HigA; experiment: ITC; n=0.51; ITC: 50 mM MES pH 6.0, 100 mM NaCl, 25 C; […]; conditions: protein: recombinant; tags: pET-21a(+), stop codon in reverse primer; chain copies: 2; blunt
HigB;HigA [8] = target: T1, HigB;HigA; experiment: EMSA; up to 0.6 mM protein; ITC: 50 mM MES pH 6.0, 100 mM NaCl, 25 C; […]; conditions: protein: recombinant;recombinant; chain copies: 2;2; blunt
HigB;HigA [9] = target: T1, HigB;HigA; experiment: ITC; n=0.48; ITC: 50 mM MES pH 6.0, 100 mM NaCl, 25 C; […]; conditions: protein: recombinant;recombinant; chain copies: 2;2; blunt
HigA [10] = target: T2, HigA; experiment: ITC; n=0.50; ITC: 50 mM MES pH 6.0, 100 mM NaCl, 25 C; […]; conditions: protein: recombinant; tags: pET-21a(+), stop codon in reverse primer; chain copies: 2; blunt

B1: Streptococcus pneumoniae HigB toxin (enzyme)
chain: MHNIYFYKDKNGNEPVFDYMRELTSKKGKDSRIKLNKINDYIELLSQHGTRAGEPYIKHLDAEIWELRPLRDRILFVAWMDGSFVLLHHFMKRTQKTPKREIEQAKRELADLKERGLDNEK
Q: B1 was tested. Which “ribonuclease activity (fluorescence-labeled RNA substrate) of 2 μM HigBA after addition of 10 μM HigB α2 helix-mimicking peptide, relative to free HigB” value [1] did it give?
A: Its value is about 80%.

Q: Does B2 bind [2]?
A: Result: binds

B3: HigA^19–97 (domain or fragment)
chain: SKEEILESDMRVAIMSELIEARNEKGISQKKLEEMSGVSQPVIARMETGKTSPQLDTVLKVLASLGKTLAVVPLEHEQV
notes: HigA antitoxin, S. pneumoniae strain TIGR4, gene sp_1144, residues 19 to 97; Made 13C/15N-labelled for NMR; tag removed with thrombin (residues of the tag after the thrombin site may remain); also called deletion mutant HigA19-97
Q: Which “stoichiometry N” value [3] does the source give for B3 here?
A: The value was 2.

B4: Pal-I (dsDNA)
DNA 1: AGCATCTAGGAAACTAGGTGCT
DNA 2: AGCACCTAGTTTCCTAGATGCT
Q: For B4, which Kd (HigB;HigA [4]) is on record?
A: Its Kd is 0.46 ± 0.03 µM.

Q: And the Kd (HigA [5])?
A: The Kd was 1.61 ± 0.02 µM.

B5: Pal-II (dsDNA)
DNA 1: AACTTAAAAGTATTTACAAACAATAACTTTTAGGTT
DNA 2: AACCTAAAAGTTATTGTTTGTAAATACTTTTAAGTT
Q: For B5, which Kd (HigB;HigA [6]) is on record?
A: Its Kd is 0.7 ± 0.08 µM.

Q: What about the Kd (HigA [7]) of the same binder?
A: The Kd was 2.53 ± 0.11 µM.

B6: B (dsDNA)
DNA 1: TAATAGAATAATAAGTATCACTCCTTTA
DNA 2: TAAAGGAGTGATACTTATTATTCTATTA
Q: Does B6 bind (HigB;HigA [8])?
A: Result: no binding

B7: X (dsDNA)
DNA 1: GATTTTTTTTGATTTTTTT
DNA 2: AAAAAAATCAAAAAAAATC
Q: Does B7 bind (HigB;HigA [8])?
A: Result: no binding

B8: Pal-III (dsDNA)
DNA 1: TATTTTAATAACTTAAAAGT
DNA 2: ACTTTTAAGTTATTAAAATA
Q: B8 was tested. Which Kd (HigB;HigA [9]) did it give?
A: Its Kd is 0.2 ± 0.01 µM.

Q: And the Kd (HigA [10])?
A: Its Kd is 1.34 ± 0.01 µM.

B9: Pal-IV (dsDNA)
DNA 1: TAGGTTATAATTGTTATTAGGAA
DNA 2: TTCCTAATAACAATTATAACCTA
Q: Which Kd (HigB;HigA [9]) does the source give for B9 here?
A: Its Kd is 1.19 ± 0.14 µM.
